Laboratory results as given in the FLAb antibody collection (doi:10.1101/2023.12.08.570889).

Target: IL36R
Assay: Kd (SPR)

| Binder | Kd |
| --- | --- |
| unnamed (protein) chain 1: QVQLVQSGAEVKKPGASVKVSCKASGYSFTSSWIHWVKQAPGQGLEWMGEINPGNVRTNYNENFRNKVTMTVDTSISTAYMELSRLRSDDTAVYYCTRVFYGEPYFDYWGQGTLVTVSS chain 2: QIVLTQSPGTLSLSPGERATMTCTASSSVSSSYFHWYQQKPGQAPRLWIYRTSRLASGVPDRFSGSGSGTDFTLTISRLEPEDAATYYCHQFHRSPLTFGAGTKLEIK | 1.13 nM |
| unnamed (protein) chain 1: QVQLVQSGAEVKKPGASVKVSCKASGYSFTSSWIHWVKQAPGQGLEWMGEINPGNVRTNYNENFRNKVTMTVDTSISTAYMELSRLRSDDTAVYYCTRQTYGEPYFDYWGQGTLVTVSS chain 2: QIVLTQSPGTLSLSPGERATMTCTASSSVSSSYFHWYQQKPGQAPRLWIYRTSRLASGVPDRFSGSGSGTDFTLTISRLEPEDAATYYCHQFHRSPLTFGAGTKLEIK | 274 nM |
| unnamed (protein) chain 1: QVQLVQSGAEVKKPGASVKVSCKASGYSFTSSWIHWVKQAPGQGLEWMGEINPGNVRTNYNENFRNKVTMTVDTSISTAYMELSRLRSDDTAVYYCTRVVYGEPYFDYWGQGTLVTVSS chain 2: QIVLTQSPGTLSLSPGERATMTCTASSSVSSSYFHWYQQKPGQAPRLWIYRTSRLASGVPDRFSGSGSGTDFTLTISRLEPEDAATYYCHQFHRSPLTFGAGTKLEIK | 0.649 nM |
| unnamed (protein) chain 1: QVQLVQSGAEVKKPGASVKVSCKASGYSFTSSWIHWVKQAPGQGLEWMGEINPGNVRTNYNENFRNKVTMTVDTSISTAYMELSRLRSDDTAVYYCTRSRYGEPYFDYWGQGTLVTVSS chain 2: QIVLTQSPGTLSLSPGERATMTCTASSSVSSSYFHWYQQKPGQAPRLWIYRTSRLASGVPDRFSGSGSGTDFTLTISRLEPEDAATYYCHQFHRSPLTFGAGTKLEIK | 4.79 nM |
| unnamed (protein) chain 1: QVQLVQSGAEVKKPGASVKVSCKASGYSFTSSWIHWVKQAPGQGLEWMGEINPGNVRTNYNENFRNKVTMTVDTSISTAYMELSRLRSDDTAVYYCTRVSFGEPYFDYWGQGTLVTVSS chain 2: QIVLTQSPGTLSLSPGERATMTCTASSSVSSSYFHWYQQKPGQAPRLWIYRTSRLASGVPDRFSGSGSGTDFTLTISRLEPEDAATYYCHQFHRSPLTFGAGTKLEIK | 0.758 nM |

Further lines, results first:

| Kd | Binder |
| --- | --- |
| 7.07 nM | unnamed (protein) chain 1: QVQLVQSGAEVKKPGASVKVSCKASGYSFTSSWIHWVKQAPGQGLEWMGEINPGNVRTNYNENFRNKVTMTVDTSISTAYMELSRLRSDDTAVYYCTRVSFGEPWFDYWGQGTLVTVSS chain 2: QIVLTQSPGTLSLSPGERATMTCTASSSVSSSYFHWYQQKPGQAPRLWIYRTSRLASGVPDRFSGSGSGTDFTLTISRLEPEDAATYYCHQFHRSPLTFGAGTKLEIK |
| 0.991 nM | unnamed (protein) chain 1: QVQLVQSGAEVKKPGASVKVSCKASGYSFTSSWIHWVKQAPGQGLEWMGEINPGNVRTNYNENFRNKVTMTVDTSISTAYMELSRLRSDDTAVYYCTRVTYGEPYFDYWGQGTLVTVSS chain 2: QIVLTQSPGTLSLSPGERATMTCTASSSVSSSYFHWYQQKPGQAPRLWIYRTSRLASGVPDRFSGSGSGTDFTLTISRLEPEDAATYYCHQFHRSPLTFGAGTKLEIK |
| 0.888 nM | unnamed (protein) chain 1: QVQLVQSGAEVKKPGASVKVSCKASGYSFTSSWIHWVKQAPGQGLEWMGEINPGNVRTNYNENFRNKVTMTVDTSISTAYMELSRLRSDDTAVYYCTTVRYGEPYFDYWGQGTLVTVSS chain 2: QIVLTQSPGTLSLSPGERATMTCTASSSVSSSYFHWYQQKPGQAPRLWIYRTSRLASGVPDRFSGSGSGTDFTLTISRLEPEDAATYYCHQFHRSPLTFGAGTKLEIK |
| 4.32 nM | unnamed (protein) chain 1: QVQLVQSGAEVKKPGASVKVSCKASGYSFTSSWIHWVKQAPGQGLEWMGEINPGNVRTNYNENFRNKVTMTVDTSISTAYMELSRLRSDDTAVYYCTRVRFGEPWFDYWGQGTLVTVSS chain 2: QIVLTQSPGTLSLSPGERATMTCTASSSVSSSYFHWYQQKPGQAPRLWIYRTSRLASGVPDRFSGSGSGTDFTLTISRLEPEDAATYYCHQFHRSPLTFGAGTKLEIK |
| 1.54 nM | unnamed (protein) chain 1: QVQLVQSGAEVKKPGASVKVSCKASGYSFTSSWIHWVKQAPGQGLEWMGEINPGNVRTNYNENFRNKVTMTVDTSISTAYMELSRLRSDDTAVYYCTRVVFGEPYFDYWGQGTLVTVSS chain 2: QIVLTQSPGTLSLSPGERATMTCTASSSVSSSYFHWYQQKPGQAPRLWIYRTSRLASGVPDRFSGSGSGTDFTLTISRLEPEDAATYYCHQFHRSPLTFGAGTKLEIK |
